# According to patent US20170095421A1 (published 2017):
# How the values were obtained:
# GPIIbIIIa = experiment: SPR (Langmuir binding analysis)
# Peptide 2 = experiment: SPR (Langmuir binding analysis); GPIIbIIIa mimotope
# Peptide 1 = experiment: as above
binder,measurement,setting,value
Fibrinogen (ligand) chain 1: ADSGEGDFLAEGGGVRGPRVVERHQSACKDSDWPFCSDEDWNYKCPSGCRMKGLIDEVNQDFTNRINKLKNSLFEYQKNNKDSHSLTTNIMEILRGDFSSANNRDNTYNRVSEDLRSRIEVLKRKVIEKVQHIQLLQKNVRAQLVDMKRLEVDIDIKIRSCRGSCSRALAREVDLKDYEDQQKQLEQVIAKDLLPSRDRQHLPLIKMKPVPDLVPGNFKSQLQKVPPEWKALTDMPQMRMELERPGGNEITRGGSTSYGTGSETESPRNPSSAGSWNSGSSGPGSTGNRNPGSSGTGGTATWKPGSSGPGSTGSWNSGSSGTGSTGNQNPGSPRPGSTGTWNPGSSERGSAGHWTSESSVSGSTGQWHSESGSFRPDSPGSGNARPNNPDWGTFEEVSGNVSPGTRREYHTEKLVTSKGDKELRTGKEKVTSGSTTTTRRSCSKTVTKTVIGPDGHKEVTKEVVTSEDGSDCPEAMDLGTLSGIGTLDGFRHRHPDEAAFFDTASTGKTFPGFFSPMLGEFVSETESRGSESGIFTNTKESSSHHPGIAEFPSRGKSSSYSKQFTSSTSYNRGDSTFESKSYKMADEAGSEADHEGTHSTKRGHAKSRPV chain 2: QGVNDNEEGFFSARGHRPLDKKREEAPSLRPAPPPISGGGYRARPAKAAATQKKVERKAPDAGGCLHADPDLGVLCPTGCQLQEALLQQERPIRNSVDELNNNVEAVSQTSSSSFQYMYLLKDLWQKRQKQVKDNENVVNEYSSELEKHQLYIDETVNSNIPTNLRVLRSILENLRSKIQKLESDVSAQMEYCRTPCTVSCNIPVVSGKECEEIIRKGGETSEMYLIQPDSSVKPYRVYCDMNTENGGWTVIQNRQDGSVDFGRKWDPYKQGFGNVATNTDGKNYCGLPGEYWLGNDKISQLTRMGPTELLIEMEDWKGDKVKAHYGGFTVQNEANKYQISVNKYRGTAGNALMDGASQLMGENRTMTIHNGMFFSTYDRDNDGWLTSDPRKQCSKEDGGGWWYNRCHAANPNGRYYWGGQYTWDMAKHGTDDGVVWMNWKGSWYSMRKMSMKIRPFFPQQ chain 3: YVATRDNCCILDERFGSYCPTTCGIADFLSTYQTKVDKDLQSLEDILHQVENKTSEVKQLIKAIQLTYNPDESSKPNMIDAATLKSRKMLEEIMKYEASILTHDSSIRYLQEIYNSNNQKIVNLKEKVAQLEAQCQEPCKDTVQIHDITGKDCQDIANKGAKQSGLYFIKPLKANQQFLVYCEIDGSGNGWTVFQKRLDGSVDFKKNWIQYKEGFGHLSPTGTTEFWLGNEKIHLISTQSAIPYALRVELEDWNGRTSTADYAMFKVGPEADKYRLTYAYFAGGDAGDAFDGFDFGDDPSDKFFTSHNGMQFSTWDNDNDKFEGNCAEQDGSGWWMNKCHAGHLNGVYYQGGTYSKASTPNGYDNGIIWATWKTRWYSMKKTTMKIIPFNRLTIGEGQQHHLGGAKQAGDV,Kd,GPIIbIIIa,10.3 nM
same,Kd,Peptide 2,334 nM
same,Kd,Peptide 1,12500 nM
